Values quoted from earlier work as cited in paper PMC4245983.
Read-outs that look alike come from different tables or passages of the source.

Key:
[1] = molecular target: IscU (Escherichia coli) (UniProt P0ACD4); conditions: cited from earlier work
[2] = molecular target: IscU (Escherichia coli) (UniProt P0ACD4); conditions: cited from earlier work; remark: listed apart in the source

Chain of HscA (P0A6Z1 whole entry): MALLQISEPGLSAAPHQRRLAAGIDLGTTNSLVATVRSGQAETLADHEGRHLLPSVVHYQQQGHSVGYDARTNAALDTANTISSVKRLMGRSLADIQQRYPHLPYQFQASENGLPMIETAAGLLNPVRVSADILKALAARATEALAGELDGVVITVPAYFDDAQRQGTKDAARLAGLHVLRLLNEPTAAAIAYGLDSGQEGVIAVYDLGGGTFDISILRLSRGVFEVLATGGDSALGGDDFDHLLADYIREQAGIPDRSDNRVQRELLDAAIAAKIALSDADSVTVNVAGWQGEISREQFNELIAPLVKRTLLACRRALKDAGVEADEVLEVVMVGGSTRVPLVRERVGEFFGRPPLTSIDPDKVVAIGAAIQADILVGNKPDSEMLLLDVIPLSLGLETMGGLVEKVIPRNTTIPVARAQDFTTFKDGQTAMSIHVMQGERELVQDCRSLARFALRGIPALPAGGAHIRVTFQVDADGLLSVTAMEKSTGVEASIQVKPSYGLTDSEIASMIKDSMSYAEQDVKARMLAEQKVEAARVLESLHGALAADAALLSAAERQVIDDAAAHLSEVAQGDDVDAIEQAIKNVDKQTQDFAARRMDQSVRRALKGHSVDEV
Chain of IscU (Escherichia coli) (P0ACD4 whole entry): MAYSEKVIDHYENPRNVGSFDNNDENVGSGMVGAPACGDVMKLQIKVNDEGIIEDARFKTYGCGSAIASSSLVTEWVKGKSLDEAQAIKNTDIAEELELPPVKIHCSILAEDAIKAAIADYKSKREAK

For HscA (from UniProt P0A6Z1), the Kd [1] is listed as 37 µM and the Kd [2] is listed as 1.6 µM.
